Columns and labels:
[1] = target: recombinant α-secretase N-terminal soluble form of APP695 (sAPPα^695) (human); test: AUC; sedimentation velocity, 50,000 rpm, absorbance at 280 nm, c(S) model (Sedfit); APP 2.5 μM with holo-Lf 2.5, 3.75, 5 μM or apo-Lf 2.5, 12.5 μM; weight average sedimentation coefficients fitted to a two-site binding model
[2] = target: recombinant α-secretase N-terminal soluble form of APP695 (sAPPα^695) (human); test: other fluorescence titration; native tryptophan fluorescence, excitation 295 nm, change of intensity at 340 nm against Lf concentration, fitted to two independent sites on an acceptor; 96-well quartz microplate

Kd1:1 (first site, two-site binding model) [1]: 620 nM
Kd1:2 (second site, two-site binding model) [1]: 8.2 µM
stoichiometry N (Lf molecules per sAPPα695 molecule) [1]: 2
Kd1:1 (first site, two-site model) [2]: 690 nM
Kd1:2 (second site, two-site model) [2]: 9.4 µM
Substance: holo-lactoferrin (iron-bound form of Lf) (natural protein)

— paper PMC8758478
